Entries after “also recorded” stand apart in the source; their conditions may differ. Like-named read-outs stand apart in the source and are kept apart here.
Key:
[1] = system: rat remnant kidney model (5/6 NPX); test: rat partial (5/6) nephrectomy chronic renal failure injury model; type: in vivo
From the text: A rat partial (5/6) nephrectomy or rat remnant kidney model (RRKM) model was employed essentially as described (Vukicevic, et al. (1987) J. Bone Mineral Res. 2: 533, the entire content of which is incorporated herein by reference). Male Munich-Wistar rats (2-3 months old, weighing about 200-250 g) were subjected to renal mass ablation. Specifically, the right kidney is excised in conjunction with selective ligation of the left renal artery branches such that one third of the kidney remains perfused (5/6 NPX, see FIG. 12). Immediately following surgery, plasma creatinine and BUN levels rise dramatically due to the loss of renal mass and function. Over the next several weeks of this “acute” failure phase, plasma creatinine and BUN levels of surviving animals decline somewhat toward normal values but remain elevated. Renal function then appears to remain relatively constant or stable for a period of variable duration. After this point, the animals enter a period of chronic renal failure in which there is an essentially linear decline in renal function ending in death. For these reasons, animals are given 4 weeks of recovery prior to initiation of treatments.
Four weeks after nephrectomy, rats were divided into four treatment groups (see Table III), namely OP-1 (150 μg/kg body weight, 3×/week, by i.p. injection), Vehicle (20 mM arginine/150 mM NaCl, 0.1% Tween-80, pH 9.0, 1 ml/kg body weight, 3×/week, by i.p. injection), enalapril (100 mg/L in drinking water, 8-16 mg/kg body weight), and OP-1 with enalapril. For the first two groups (OP-1 and Vehicle), animals were sacrificed 14 weeks after nephrectomy. For the last two groups (enalapril, and OP-1 with enalapril), animals were sacrificed 26 weeks after nephrectomy. As surgical controls, rats were subjected to a “sham” operation in which the kidneys were decapsulated but no renal tissue was removed. Sham-treated animals were sacrificed 26 weeks after operation. None of the rats died in any group during this study. Systolic blood pressure, urine protein and/or glomerulosclerosis were monitored at intervals between 4 and 26 weeks post surgery.

[2] = system: streptozotocin-induced diabetic Sprague-Dawley rats; test: Streptozotocin-induced diabetic nephropathy model (Example 3); type: in vivo, rat; settings: for proteinuria level: OP-1 30 and 100 μg/kg, enalapril 50 and 100 mg/L, or combination, diabetic about 140 mg/day
Procedure: Streptozotocin kills pancreatic β cells and induces type I diabetes (for review, see Cheta et al. (1998) J Pediatr Endocrinol Metab 11:11-9). It is widely used to induce experimental diabetic nephropathy in animals (see FIG. 22). Adult female Sprague-Dawley rats (weighing 200-250 g) were intraperitoneally injected with streptozotocin (60 mg/kg body weight) to induce hyperglycemia. Hyperglycemic rats then received daily injections of insulin to maintain blood glucose between 200-400 mg/dL. At week 16 when renal function declined, animals were treated weekly with OP-1 (10, 30 or 100 μg/kg body weight), enalapril (50 or 100 mg/L in drinking water) or a combination of OP-1 and enalapril. Control animals without streptozotocin treatment were handled in all other ways like treated animals. Animals were sacrificed at week 32 post-streptozotocin treatment.

[3] = system: unilateral ureteral ligation in Sprague-Dawley rats; settings: cited from earlier work; for renal blood flow (RBF): during UUO; for interstitial inflammation, fibrogenesis / renal (tubulointerstitial) fibrosis: OP-1 100 or 300 μg/kg, first 5 days after obstruction, compared with enalapril
[4] = summary of the nephrectomy model

Row | Molecule | proteinuria level (late-stage) ([1]; enalapril 100 mg/L drinking water with or without OP-1, up to 26 weeks after nephrectomy) [mg/day] | proteinuria level [2] | tubular atrophy ([3]; UUO rats) | renal blood flow (RBF) [3] | blood pressure level ([1]; OP-1 150 μg/kg i.p. 3×/week from 4 weeks after nephrectomy, to 14 weeks) | glomerular filtration rate [1, 4] | glomerulosclerosis [1, 4] | mean GFR ([2]; OP-1 100 μg/kg weekly, weeks 16-32, 32-week diabetic animals about 0.38) | glomerular filtration rate (in words) ([2]; weeks 16-32 treatment) | interstitial inflammation, fibrogenesis / renal (tubulointerstitial) fibrosis [3] | interstitial inflammation, fibrogenesis / renal (tubulointerstitial) fibrosis ([3]; listed as OP-1/BMP-7) | epithelial cell apoptosis produced by UUO ([3]; UUO rats) | tubular epithelial disruption ([3]; UUO rats)
1 | CCOC(=O)[C@H](CCc1ccccc1)N[C@@H](C)C(=O)N1CCC[C@H]1C(=O)O [enalapril, N-(1-ethoxycarbonyl-3-phenylpropyl)-L-ananyl-L-proline, reference compound] | 105 | almost normal level; also recorded: significantly reduced the proteinuria level | an effect not shared with ACEI enalapril | also stimulated RBF |  |  |  |  |  |  |  |  | 
2 | OP-1: osteogenic protein-1 (OP-1, also known as BMP-7), morphogen of the OP/BMP family; OP-1 used interchangeably with sBMP-7 (protein) STGSKQRSQNRSKTPKNQEALRMANVAENSSSDQRQACKKHELYVSFRDLGWQDWIIAPEGYAAYYCEGECAFPLNSYMNATNHAIVQTLVHFINPETVPKPCCAPTQLNAISVLYFDDSSNVILKKYRNMVVRACGCH |  | almost normal level; also recorded: reduces proteinuria; also recorded: significantly reduced the proteinuria level | prevention of tubular atrophy; also recorded: reduces tubular atrophy | preserved renal blood flow | did not dramatically lower the blood pressure level | improves glomerular filtration rate | reduces glomerulosclerosis | about 0.7 ml/min/100 g body weight | significantly increased the glomerular filtration rate; also recorded: increases the glomerular filtration rate | prevented interstitial inflammation and fibrogenesis; also recorded: more effective in preventing tubulointerstitial fibrosis and in preserving renal function; also recorded: reduces renal fibrosis | Inhibits renal fibrosis | blocked the stimulation of epithelial cell apoptosis | inhibited tubular epithelial disruption

Reference: US20050272649A1, “Conjoint administration of morphogens and ACE inhibitors in treatment of chronic renal failure” (priority 2002, published 2005)
